Laboratory results: patent US20070286806A1, “Methods and Compositions for Modulating a Steroid Receptor” (Mount Sinai Hospital, priority 2004, published 2007)

Legend:
[1] = biological target: myometrial progesterone receptors; settings: cited from earlier work
[2] = biological target: T1, PR DNA binding domain / PRE (Homo sapiens, UniProt P06401); experiment: Electrophoretic Mobility Shift Assay of PR binding to PRE; settings: nuclear extract of 293T cells transfected with Flag-PRB, increasing doses
T1 construct: PR 556-650 was also inserted downstream of T7 promoter of pcDNA3; made in house; host or cells: rabbit reticulocyte lysate (TNT, Promega); GST-PSF from E. coli
T1 sequence (P06401 1-933): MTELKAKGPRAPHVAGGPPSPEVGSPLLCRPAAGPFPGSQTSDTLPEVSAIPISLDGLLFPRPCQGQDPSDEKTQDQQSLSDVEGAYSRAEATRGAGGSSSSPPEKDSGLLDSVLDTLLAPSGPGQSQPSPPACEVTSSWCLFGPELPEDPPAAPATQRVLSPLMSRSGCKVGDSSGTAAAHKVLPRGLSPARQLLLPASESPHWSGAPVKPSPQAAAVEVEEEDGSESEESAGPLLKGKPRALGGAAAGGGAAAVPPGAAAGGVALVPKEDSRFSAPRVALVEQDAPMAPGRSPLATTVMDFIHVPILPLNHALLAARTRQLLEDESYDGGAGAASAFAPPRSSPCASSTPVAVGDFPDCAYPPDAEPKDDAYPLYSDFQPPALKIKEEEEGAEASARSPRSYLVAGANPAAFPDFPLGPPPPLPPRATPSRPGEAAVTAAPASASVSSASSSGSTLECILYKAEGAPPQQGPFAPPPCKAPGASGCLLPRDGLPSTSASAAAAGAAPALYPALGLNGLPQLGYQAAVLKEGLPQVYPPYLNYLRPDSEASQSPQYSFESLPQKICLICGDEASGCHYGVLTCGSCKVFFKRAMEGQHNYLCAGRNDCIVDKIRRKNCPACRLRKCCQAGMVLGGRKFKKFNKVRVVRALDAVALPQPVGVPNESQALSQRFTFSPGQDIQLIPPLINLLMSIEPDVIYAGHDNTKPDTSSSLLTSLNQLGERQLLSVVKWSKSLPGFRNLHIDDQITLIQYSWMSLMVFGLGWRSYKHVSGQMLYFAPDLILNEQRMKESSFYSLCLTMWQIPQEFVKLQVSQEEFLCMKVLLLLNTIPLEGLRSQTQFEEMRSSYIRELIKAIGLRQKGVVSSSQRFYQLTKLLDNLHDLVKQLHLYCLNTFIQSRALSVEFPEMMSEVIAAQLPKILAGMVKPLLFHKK
Description: (§1) FIG. 8. PSF interferes with binding of PR DNA binding domain to PRE. (A) Electrophoretic mobility shift assay was performed with ^32P-labeled PRE incubated with in vitro translated PRDBD (1, 2, 5μl in lane 3 to 5 and 2 μl in lane 6 to 11) and increasing amount of bacterially expressed GST (lane 6 to 8) or GST PSF (lane 9 to 11). TNT lysate (lane 2) was used as negative control. (B) PR-Nuclear extraction (1 and 2 μg) as described in the method was incubated with PRE oligo in a dose dependent manner (lane 2 and 3). Anti-PR antiserum (AB-52) was added to the incubation mixture (lane 4). Addition of increasing dose (1 and 2 μl) of GST or GST-PSF in the same reaction as lane 3 was shown in lane 6, 7 and 9, 10. In the control experiments (lane 5 and 8), GST or GST-PSF was incubated with PRE without adding PR-nuclear extract. All reactions contain 10 nM progesterone.
(§2) For immunoprecipitation of the endogenous PR and PSF, T47D cells cultured in 150 mm dishes were lysed in 800 μl NETN buffer containing 150 mM NaCl plus protease inhibitor cocktail. […] Gels were treated with Enhancer (NEN, Boston, US) dried and analyzed by autoradiography. • Cell culture and transient transfection: SHM cells and 293T cells were maintained in DMEM plus 5% FCS (Sigma) as described before (22). […] Luciferase activity was determined by using the luciferin reagent (Promega) according to manufacture's protocol. […]

[3] = biological target: T2, PR DNA binding domain / PRE (Homo sapiens, UniProt P06401); experiment: as above; settings: in vitro translated PRDBD, 32P-labeled PRE
T2 construct: PR 556-650 was also inserted downstream of T7 promoter of pcDNA3; made in house; host or cells: rabbit reticulocyte lysate (TNT, Promega); GST-PSF from E. coli
T2 sequence (P06401 556-650): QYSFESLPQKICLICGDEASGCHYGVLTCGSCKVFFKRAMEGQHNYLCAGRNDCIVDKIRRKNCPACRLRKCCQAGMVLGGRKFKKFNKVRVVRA
Description: as §1, §2

| Molecule | Kd [1] [nM] | association of full-length PR to PRE [2] | association of PRDBD to PRE [3] |
| --- | --- | --- | --- |
| CC(=O)[C@H]1CC[C@H]2[C@@H]3CCC4=CC(=O)CC[C@]4(C)[C@H]3CC[C@]12C [progesterone] | 1 | – | – |
| GST-PSF: bacterially expressed GST-PSF fusion protein (protein, left off: a dimerising Fc or GST, bacterially expressed GST-PSF fusion protein) MSRDRFRSRGGGGGGFHRRGGGGGRGGLHDFRSPPPGMGLNQNRGPMGPGPGQSGPKPPIPPPPPHQQQQQPPPQQPPPQQPPPHQPPPHPQPHQQQQPPPPPQDSSKPVVAQGPGPAPGVGSAPPASSSAPPATPPTSGAPPGSGPGPTPTPPPAVTSAPPGAPPPTPPSSGVPTTPPQAGGPPPPPAAVPGPGPGPKQGPGPGGPKGGKMPGGPKPGGGPGLSTPGGHPKPPHRGGGEPRGGRQHHPPYHQQHHQGPPPGGPGGRSEEKISDSEGFKANLSLLRRPGEKTYTQRCRLFVGNLPADITEDEFKRLFAKYGEPGEVFINKGKGFGFIKLESRALAEIAKAELDDTPMRGRQLRVRFATHAAALSVRNLSPYVSNELLEEAFSQFGPIERAVVIVDDRGRSTGKGIVEFASKPAARKAFERCSEGVFLLTTTPRPVIVEPLEQLDDEDGLPEKLAQKNPMYQKERETPPRFAQHGTFEYEYSQRWKSLDEMEKQQREQVEKNMKDAKDKLESEMEDAYHEHQANLLRQDLMRRQEELRRMEELHNQEMQKRKEMQLRQEEERRRREEEMMIRQREMEEQMRRQREESYSRMGYMDPRERDMRMGGGGAMNMGDPYGSGGQKFPPLGGGGGIGYEANPGVPPATMSGSMMGSDMRTERFGQGGAGPVGGQGPRGMGPGTPAGYGRGREEYEGPNKKPRF | – | decrease of association of PR to PRE | decreased association of PRDBD to PRE |
